# Patent publication US5574018A, “Conjugates of vitamin B12 and proteins” (Amgen Inc., priority 1994, dated 1996)
# B1: Example 2: conjugate of 5'-O-[glutaroyl]cyanocobalamin with G-CSF via the N-hydroxysuccinimide derivative (conjugate, UniProt P09919 31-207, looked up)
# Granulocyte …: TPLGPASSLPQSFLLKCLEQVRKIQGDGAALQEKLVSECATYKLCHPEELVLLGHSLGIPWAPLSSCPSQALQLAGCLSQLHSGLFLYQGLLQALEGISPELGPTLDTLQLDVADFATTIWQQMEELGMAPALQPTQGAMPAFASAFQRRAGGVLVASHLQSFLEVSYRVLRHLAQP
# modifications: cyanocobalamin conjugate
# notes: conjugate of 5'-O-[glutaroyl]cyanocobalamin with G-CSF via the N-hydroxysuccinimide derivative
# B2: Example 7: conjugate of 5'-O-[glutaroyl]cyanocobalamin with G-CSF via 12-aminododecylamido-dithiopyridylpropionate (conjugate, UniProt P09919 31-207, looked up)
# Granulocyte …: B1 Granulocyte …
# modifications: cyanocobalamin conjugate via disulfide linker
# notes: conjugate of 5'-O-[glutaroyl]cyanocobalamin with G-CSF via 12-aminododecylamido-dithiopyridylpropionate
# B3: Example 8: conjugate of 5'-O-[glutaroyl]cyanocobalamin with a polyethylene glycol derivative of G-CSF (conjugate, UniProt P09919 31-207, looked up)
# Granulocyte …: B1 Granulocyte …
# modifications: PEG; cyanocobalamin conjugate
# notes: conjugate of 5'-O-[glutaroyl]cyanocobalamin with a polyethylene glycol derivative of G-CSF
# B4: Example 10: conjugate with G-CSF via N-hydroxysuccinimidyl ester of 5'-O-[glutaroyl]cyanocobalamin-8-aminocaprylic acid (conjugate, UniProt P09919 31-207, looked up)
# Granulocyte …: B1 Granulocyte …
# modifications: cyanocobalamin conjugate via aminocaprylic linker
# notes: conjugate with G-CSF via N-hydroxysuccinimidyl ester of 5'-O-[glutaroyl]cyanocobalamin-8-aminocaprylic acid
# B5: rrIF: recombinant form of rat IF produced in Chinese hamster ovary cells (protein, UniProt P17267 19-417, looked up)
# Cobalamin binding intrinsic …: STRAQRSCSVPPDQQPWVNGLQLLMENSVTESDLPNPSILIAMNLASTYNLEAQKLLTYQLMASDSADLTNGQLALTIMALTSSCRDPGSKVSILQKNMESWTPSNLGAESSSFYGPALAILALCQKNSEATLPIAVRFAKTLMMESSPFSVDTGAVATLALTCMYNRIPVGSQENYRDLFGQALKVIVDNISLRIKADGIIGDIYSTGLAMQALSVTPEQPTKEWDCEKTMYTILKEIKQGKFQNPMSIAQILPSLKGKTYLDVPQVTCGPDHEVPPTLTDYPTPVPTSISNITVIYTINNQLRGVDLLFNVTIEVSVKSGSVLLAVLEEAQRRNHMFKFETTMTSWGLIVSSINNIAENVKHKTYWEFLSGKTPLGEGVAYYIPFNYEHITANFTQY
# Experiments:
# [1] = tested on: exhypoxic polycythemic mice; experiment: In vivo exhypoxic polycythemic mouse assay of VB12-EPO conjugates; conditions: i.p., vs EPO
# Method: The hematopoietic activity of EPO after conjugation to 5'-O-[glutaroyl]cyanocobalamin was determined in vivo in exhypoxic polycythemic mice using the procedure of Cotes and Bingham described in Nature, Volume 191, pages 1065-1067 (1961).
# The dilution of the complexes prior to intraperitoneal (i.p.) injection was based on the protein content derived from the A280 of the sample.
# Porcine IF = target: T1, Porcine IF (Sus scrofa, UniProt A0A8D1ENZ1); experiment: Intrinsic factor binding affinity, competition binding assay with 57Co-cyanocobalamin (Scatchard); conditions: for Kd: association constant, porcine IF, conjugate 123 nM, 30 min
# T1 construct: purchased Sigma Chemical Company, St. Louis, Mo
# Method: The binding affinity of conjugates of VB12 and therapeutic proteins to intrinsic factor (IF) was determined using a competition binding assay based on the procedure described by Mathan et al. in the Journal of Clinical Investigation, Volume 54, pages 598-608 (1974). The assay was conducted in phosphate buffered saline (PBS) containing 1 mM calcium chloride, 0.5 mM magnesium chloride and 1% by weight of bovine serum albumin (BSA) devoid of IF and cyanocobalamin (Sigma Chemical Company, St. Louis, Mo.). Porcine IF (final concentration 1.845 nM) was added to a large excess of the VB12 -protein conjugate (123 nM), together with a range of concentrations of ^57 Co-cyanocobalamin ([…] to 12.3 nM), specific activity 10-20 μCi/μg, in a final volume of 600 μl of PBS. The solution was vortexed and incubated at room temperature for thirty minutes, before adding 1 ml of freshly prepared dextran-coated charcoal (0.5% by weight of charcoal, 0.1% by weight of dextran in PBS) at 4° C. After incubation for ten minutes, the mixture was centrifuged for fifteen minutes at 1000×G (2500 rpm) and 4° C. in a IEC Centra-8R benchtop centrifuge, VWR Scientific, South Plainfield, N.J. The supernatant was decanted from the resulting pellet and assayed in a Cobra 2000 Gamma counter (Hewlett-Packard, Palo Alto, Calif.) to determine the amount of bound ^57 Co-cyanocobalamin.
# The ratio of bound to free ^57 Co-cyanocobalamin versus the bound concentration of ^57 Co-cyanocobalamin was plotted according to the method of Scatchard, Annals of the New York Academy of Science, Volume 51, pages 660-672 (1949).
# -Slope=-Kapp =-KL /(1+Kc [Lf ])
# Kc =binding affinity of conjugate
# KL =binding affinity of cyanocobalamin
# [Lf ]=concentration of unbound conjugate
# The use of a large excess of the conjugate permitted the value of [Lf ] to be treated as a constant (123 nM).
# [2] = Stupperich and Nexo 1991; cited from earlier work
# mouse bone marrow cells = experiment: In vitro thymidine uptake assay of VB12-G-CSF conjugates; assay type: cell-based; conditions: for Biological Activity of Conjugate, % activity compared to nonconjugated protein: vs G-CSF
# Method: The bioactivity of VB12 -G-CSF in vitro after conjugation to 5'-O-[glutaroyl]cyanocobalamin was determined by measuring the stimulated in vitro uptake of ^3 H-thymidine into mouse bone marrow cells.
# Bone marrow cells were collected from the hind legs of female Balb/C mice by flushing the bone with PBS. The cells were purified on a Ficoll-Paque density gradient (Pharmacia) and cultured in McCoys' 5A medium with 10% fetal bovine serum (FBS), 10 mM sodium pyruvate, 1×minimum essential medium (MEM) amino acids, 40 micromolar (μM) of essential amino acids, 0.04% by weight of sodium bicarbonate, 1×MEM vitamin solution, 10 mM L-glutamine and 0.005% by weight of gentamicin sulfate. After incubation for two hours at 37° C. under a 5% carbon dioxide-containing atmosphere, non-adherent cells were collected in the supernatant and the number of viable cells was counted in a hemocytometer.
# A standard curve was prepared over a range from 0.07 to 1500 Units of G-CSF per milliliter (U/ml), and the complexes were diluted to about 0.3 to 30 U/ml prior to being assayed. To a 96-well plate was added, in triplicate, 100 μl of the standard or test material and 100 μl of culture medium containing 4×10^4 non-adherent mouse bone marrow cells. After incubating the plates for sixty eight hours at 37° C. under a 5% carbon dioxide atmosphere, 0.5 μCi of thymidine [methyl-3H], 20 Ci/mmol (NEN, Boston, Mass.) was added to each well. The plates were incubated as before for an additional five hours. The cells were collected on filter paper, rinsed with water (ten times) and ethanol (one time), and then counted in Biofluor scintillation fluid in a beta plate scintillation counter (LKB, Piscataway, N.J., Model 1205-001).
# The bioactivity of the test material, in Units per milligram (U/mg), was determined from the standard curve of the G-CSF stimulated uptake of thymidine [methyl-^3 H].
# [3] = Binding analysis of recombinant rat IF (rrIF)
# T1 sequence (A0A8D1ENZ1 29-425): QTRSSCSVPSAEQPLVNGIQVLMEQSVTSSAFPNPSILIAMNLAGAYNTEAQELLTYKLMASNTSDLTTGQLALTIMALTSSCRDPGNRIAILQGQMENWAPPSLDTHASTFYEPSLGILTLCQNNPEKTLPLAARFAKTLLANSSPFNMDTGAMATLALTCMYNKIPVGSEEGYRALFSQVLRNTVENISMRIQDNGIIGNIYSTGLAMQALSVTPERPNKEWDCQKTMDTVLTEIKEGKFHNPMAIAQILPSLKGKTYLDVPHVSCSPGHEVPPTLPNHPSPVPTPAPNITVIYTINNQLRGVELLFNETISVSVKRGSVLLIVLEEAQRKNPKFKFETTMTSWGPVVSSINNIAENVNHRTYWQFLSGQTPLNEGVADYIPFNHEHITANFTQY
molecule,measurement,setting,value
"Example 13: conjugate of 5'-O-[glutaroyl]cyanocobalamin-adipic-1,6-dihydrazide with periodate-treated EPO (through sialic acids)","Biological Activity of Conjugate, % activity compared to nonconjugated protein",[1],33 ± 14%
5'-O-[glutaroyl]-cyanocobalamin [Example 1],Kd,Porcine IF,1.35 nM
"native human IF: native human intrinsic factor, literature value",binding affinity (Ka) of native human IF,[2],2e+10 M⁻¹
B1,Kd,Porcine IF,2.22 nM
B2,Kd,Porcine IF,4 nM
same,"Biological Activity of Conjugate, % activity compared to nonconjugated protein",mouse bone marrow cells,33%
B3,retention of non-conjugated VB12 binding affinity,Porcine IF,1.6%
same,Kd,Porcine IF,10.8 nM
same,"Biological Activity of Conjugate, % of G-CSF",mouse bone marrow cells,4.4 % of G-CSF
same,"Biological Activity of Conjugate, % of PEG-G-CSF",mouse bone marrow cells,38 % of PEG-G-CSF
B4,Kd,Porcine IF,1.89 nM
same,"Biological Activity of Conjugate, % activity compared to nonconjugated protein",mouse bone marrow cells,60%
B5,binding affinity (Ka) of rrIF,[3],8.58e+09 M⁻¹
